Data published in the supplement of paper PMC9112550, “Optimization of the antimicrobial peptide Bac7 by deep mutational scanning” (BMC Biology, 2022).

Test system: Escherichia coli TOP10
Assay: shrunken log2 fold change of peptide-encoding DNA abundance (4.5 h post-induction vs induction); higher = less antimicrobial activity (less host growth inhibition)
Settings: time post-induction: 4.5 h; library: site-saturation at positions 5, 18, 19, 20
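Further: peptides expressed intracellularly from a pBAD plasmid library in pooled LB shake-flask culture, induced with 0.3% L-arabinose, DNA abundance read by NGS, three biological replicates, DESeq2 with apeglm shrinkage.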

| Sequence | shrunken log2 fold change |
| --- | --- |
| RRIRERPPRLPRPRPRPIQWPRP | 0.0338 |
| RRIRERPPRLPRPRPRPIRKPRP | -0.108 |
| RRIRERPPRLPRPRPRPIRQPRP | 0.00357 |
| RRIRERPPRLPRPRPRPISCPRP | -0.705 |
| RRIRERPPRLPRPRPRPITKPRP | -0.107 |
| RRIRERPPRLPRPRPRPIVHPRP | -0.355 |
| RRIRERPPRLPRPRPRPIVKPRP | -0.0406 |
| RRIRERPPRLPRPRPRPIWPPRP | 0.0406 |
| RRIRERPPRLPRPRPRPIWTPRP | -0.0563 |
| RRIRERPPRLPRPRPRPIYIPRP | -0.138 |
| RRIRERPPRLPRPRPRPIYPPRP | -0.0605 |
| RRIRERPPRLPRPRPRPKAAPRP | 0.0382 |
| RRIRERPPRLPRPRPRPKAKPRP | -0.0257 |
| RRIRERPPRLPRPRPRPKANPRP | 0.0174 |
| RRIRERPPRLPRPRPRPKCDPRP | 0.175 |
| RRIRERPPRLPRPRPRPKCLPRP | -0.0209 |
| RRIRERPPRLPRPRPRPKCYPRP | -1.04 |
| RRIRERPPRLPRPRPRPKEIPRP | -0.357 |
| RRIRERPPRLPRPRPRPKFIPRP | -0.144 |
| RRIRERPPRLPRPRPRPKFKPRP | -0.355 |
| RRIRERPPRLPRPRPRPKFRPRP | -0.315 |
| RRIRERPPRLPRPRPRPKFTPRP | -0.147 |
| RRIRERPPRLPRPRPRPKGDPRP | -0.0914 |
| RRIRERPPRLPRPRPRPKHVPRP | -0.146 |
| RRIRERPPRLPRPRPRPKIHPRP | -0.233 |

| Sequence | shrunken log2 fold change |
| --- | --- |
| RRIRERPPRLPRPRPRPKLRPRP | -0.0804 |
| RRIRERPPRLPRPRPRPKNSPRP | -0.52 |
| RRIRERPPRLPRPRPRPKQHPRP | 0.241 |
| RRIRERPPRLPRPRPRPKSSPRP | -0.0505 |
| RRIRERPPRLPRPRPRPKTDPRP | -0.497 |
| RRIRERPPRLPRPRPRPKTKPRP | -0.00738 |
| RRIRERPPRLPRPRPRPKVDPRP | 0.0519 |
| RRIRERPPRLPRPRPRPKVRPRP | -0.0607 |
| RRIRERPPRLPRPRPRPKVTPRP | -0.114 |
| RRIRERPPRLPRPRPRPKWIPRP | -0.54 |
| RRIRERPPRLPRPRPRPKYTPRP | -0.297 |
| RRIRERPPRLPRPRPRPLANPRP | -0.225 |
| RRIRERPPRLPRPRPRPLCCPRP | -0.191 |
| RRIRERPPRLPRPRPRPLCEPRP | 0.0297 |
| RRIRERPPRLPRPRPRPLCRPRP | -0.0964 |
| RRIRERPPRLPRPRPRPLDAPRP | -0.17 |
| RRIRERPPRLPRPRPRPLEHPRP | -0.277 |
| RRIRERPPRLPRPRPRPLERPRP | -0.191 |
| RRIRERPPRLPRPRPRPLFCPRP | -0.211 |
| RRIRERPPRLPRPRPRPLGRPRP | -0.0894 |
| RRIRERPPRLPRPRPRPLIPPRP | -0.463 |
| RRIRERPPRLPRPRPRPLLRPRP | -0.152 |
| RRIRERPPRLPRPRPRPLMIPRP | -0.348 |
| RRIRERPPRLPRPRPRPLMYPRP | -0.0754 |
| RRIRERPPRLPRPRPRPLNKPRP | -0.47 |

| Sequence | shrunken log2 fold change |
| --- | --- |
| RRIRERPPRLPRPRPRPLNNPRP | -0.705 |
| RRIRERPPRLPRPRPRPLNYPRP | -0.176 |
| RRIRERPPRLPRPRPRPLPWPRP | 0.0953 |
| RRIRERPPRLPRPRPRPLQYPRP | -0.286 |
| RRIRERPPRLPRPRPRPLRMPRP | 0.167 |
| RRIRERPPRLPRPRPRPLRQPRP | 0.0463 |
| RRIRERPPRLPRPRPRPLSDPRP | -0.0828 |
| RRIRERPPRLPRPRPRPLSIPRP | -0.367 |
| RRIRERPPRLPRPRPRPLTEPRP | -0.298 |
| RRIRERPPRLPRPRPRPLTRPRP | 0.167 |
| RRIRERPPRLPRPRPRPLTYPRP | -0.188 |
| RRIRERPPRLPRPRPRPLVAPRP | 0.0966 |
| RRIRERPPRLPRPRPRPLVFPRP | -0.153 |
| RRIRERPPRLPRPRPRPLWCPRP | -0.0233 |
| RRIRERPPRLPRPRPRPLWLPRP | -0.203 |
| RRIRERPPRLPRPRPRPLYCPRP | -0.444 |
| RRIRERPPRLPRPRPRPLYNPRP | -0.264 |
| RRIRERPPRLPRPRPRPMANPRP | 0.0745 |
| RRIRERPPRLPRPRPRPMAWPRP | 0.151 |
| RRIRERPPRLPRPRPRPMDAPRP | -0.0623 |
| RRIRERPPRLPRPRPRPMDGPRP | 0.0211 |
| RRIRERPPRLPRPRPRPMGEPRP | -0.00192 |
| RRIRERPPRLPRPRPRPMHNPRP | -0.437 |
| RRIRERPPRLPRPRPRPMHPPRP | 0.464 |
| RRIRERPPRLPRPRPRPMHVPRP | 0.05 |
